Data on seven molecules can be found in US20220127354A1 (Amgen, published 2022).

Common to all, as to assay: flow cytometry, transfected 293T cells, 2 mM CaCl2
Assay [1] concerns the target T1, raCDH19(1-43)::FLAG::raCDH19(44-770) (construct W, Ra EC1-5) (rat).
T1 construct: leader (1-43 of the entry) left out; also called rat Cadherin19
T1 chain: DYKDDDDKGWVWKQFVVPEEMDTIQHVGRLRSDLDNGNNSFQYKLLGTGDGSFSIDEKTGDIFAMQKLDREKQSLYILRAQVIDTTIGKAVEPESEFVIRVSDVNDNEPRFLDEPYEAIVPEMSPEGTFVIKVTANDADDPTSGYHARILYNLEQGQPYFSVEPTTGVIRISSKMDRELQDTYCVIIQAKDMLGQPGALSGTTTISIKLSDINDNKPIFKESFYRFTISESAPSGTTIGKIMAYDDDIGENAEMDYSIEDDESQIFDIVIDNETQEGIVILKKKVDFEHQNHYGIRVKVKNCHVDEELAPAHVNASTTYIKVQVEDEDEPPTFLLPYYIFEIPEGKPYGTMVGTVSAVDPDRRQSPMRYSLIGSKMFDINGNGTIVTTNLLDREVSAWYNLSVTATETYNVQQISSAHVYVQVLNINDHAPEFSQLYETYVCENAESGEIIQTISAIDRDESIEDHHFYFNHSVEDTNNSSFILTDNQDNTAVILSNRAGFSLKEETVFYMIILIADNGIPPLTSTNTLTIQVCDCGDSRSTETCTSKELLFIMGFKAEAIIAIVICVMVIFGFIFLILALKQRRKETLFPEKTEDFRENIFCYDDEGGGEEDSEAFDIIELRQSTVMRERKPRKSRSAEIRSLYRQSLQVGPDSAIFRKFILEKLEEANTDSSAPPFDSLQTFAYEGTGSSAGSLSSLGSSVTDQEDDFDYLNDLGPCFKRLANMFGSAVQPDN

For assay [2], the target named is T2, rhCDH19(1-43)::FLAG::rhCDH19(44-772) (construct P, Rh EC1-5) (rhesus macaque, UniProt Q9H159 44-772 (human entry)).
T2 construct: leader (1-43 of the entry) left out; also called rhesus macaque Cadherin19
T2 chain: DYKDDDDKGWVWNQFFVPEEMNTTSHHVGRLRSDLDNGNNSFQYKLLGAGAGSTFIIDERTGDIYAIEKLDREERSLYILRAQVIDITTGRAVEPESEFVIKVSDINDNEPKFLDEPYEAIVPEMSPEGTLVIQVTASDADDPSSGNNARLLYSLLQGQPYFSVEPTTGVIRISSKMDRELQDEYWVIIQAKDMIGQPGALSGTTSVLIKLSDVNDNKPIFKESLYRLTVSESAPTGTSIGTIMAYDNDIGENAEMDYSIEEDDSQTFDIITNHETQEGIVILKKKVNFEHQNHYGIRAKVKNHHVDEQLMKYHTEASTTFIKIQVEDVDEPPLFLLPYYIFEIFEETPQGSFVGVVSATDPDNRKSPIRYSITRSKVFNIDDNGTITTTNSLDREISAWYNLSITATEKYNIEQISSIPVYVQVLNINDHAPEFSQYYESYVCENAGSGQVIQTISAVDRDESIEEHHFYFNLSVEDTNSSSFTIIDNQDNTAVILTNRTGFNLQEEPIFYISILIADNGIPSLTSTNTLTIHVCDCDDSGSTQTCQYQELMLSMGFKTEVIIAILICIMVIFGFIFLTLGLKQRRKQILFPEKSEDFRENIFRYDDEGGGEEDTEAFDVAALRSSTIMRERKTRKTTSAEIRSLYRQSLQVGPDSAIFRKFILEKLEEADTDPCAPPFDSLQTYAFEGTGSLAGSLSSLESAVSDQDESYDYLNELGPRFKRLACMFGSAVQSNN

In assay [3] the target is huCDH19(44-772) with Flag tag (construct A, Hu EC1-5) (human, UniProt Q9H159 44-772).
In assay [4] the target is T3, ckCDH19(1-43)::FLAG::ckCDH19(44-141)::huCDH19(142-249)::ckCDH19(250-776) (construct L, Hu EC2) (human/chicken chimera).
T3 construct: leader (1-43 of the entry) left out
T3 chain: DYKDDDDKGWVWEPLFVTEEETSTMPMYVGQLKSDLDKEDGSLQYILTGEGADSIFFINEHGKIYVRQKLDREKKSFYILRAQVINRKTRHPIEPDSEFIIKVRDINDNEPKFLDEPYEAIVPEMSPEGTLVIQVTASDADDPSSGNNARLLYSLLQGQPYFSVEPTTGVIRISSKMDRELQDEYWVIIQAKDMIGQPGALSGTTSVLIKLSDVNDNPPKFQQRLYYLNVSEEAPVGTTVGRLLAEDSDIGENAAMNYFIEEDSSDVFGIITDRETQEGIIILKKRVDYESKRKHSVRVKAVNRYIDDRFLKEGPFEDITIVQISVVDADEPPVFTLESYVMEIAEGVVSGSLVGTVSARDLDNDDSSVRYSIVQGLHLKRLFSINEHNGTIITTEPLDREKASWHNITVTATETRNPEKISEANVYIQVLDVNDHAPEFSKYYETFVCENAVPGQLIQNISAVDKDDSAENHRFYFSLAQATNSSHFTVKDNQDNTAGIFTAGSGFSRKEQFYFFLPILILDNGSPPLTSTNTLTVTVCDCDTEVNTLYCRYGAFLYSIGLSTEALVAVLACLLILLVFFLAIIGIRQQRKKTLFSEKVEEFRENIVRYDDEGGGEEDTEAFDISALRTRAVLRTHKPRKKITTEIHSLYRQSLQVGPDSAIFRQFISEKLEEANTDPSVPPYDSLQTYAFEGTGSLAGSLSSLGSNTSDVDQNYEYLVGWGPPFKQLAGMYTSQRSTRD

Where a chain is given by its changes, count along the chain named. In names and notes the source's numbering stands.

B1: hu anti-<huCDH19> 4A9 (Ab ID 13589) (antibody, human IgG1, lambda, V domains shown)
VH: QVQLQESGPGLVKPSETLSLTCTVSGGSISGYYWSWIRQPPGKGLEWFAYFSYSGSTNYNPSLKSRVTLSVDTSKNQFSLKLSSVTAADTAVYYCARNWAFHFDFWGQGTLVTVSS
VL: QSVLTQPPSVSGAPGQRVTISCTGSSSNIGTGYAVHWYQQFPGTAPKLLIYGNNNRPSGVPDRFSGSKSGTSASLAITGLQAEDEADYYCQSYDSRLSGWVFGGGTKLTVLG
notes: huIgG1z / huLLC-C1; Bin 1
For B1, the binding result in assay [1] is on record as “no binding (tested: 5 ug/ml)”; in assay [2] it was “binds”; in assay [3] it was “binds”; in assay [4], “no binding (tested: 5 ug/ml)”.

B2: hu anti-<huCDH19> 4B10 (Ab ID 13590) (antibody, V domains shown)
VH: QVQLVESGGGVVQPGRSLRLSCAASGFTFSSYDMHWVRQAPGKGLEWVAVISYDGTNEYYADSVKGRFTISRDTSKNTLYLQMNSLRAEDTAVYYCARERYFDWSFDYWGQGTLVSVSS
VL: EIVLTQSPGTLSLSPGERATLSCRASQSVSNTYLAWYHQRPGQAPRLLIYGASSRATGIPDRFSGSGSGTDFALTISSLEPEDFAVYYCQQYSNSWTFGQGTKVEIKR
notes: huIgG1z / huKLC; Bin 4
For B2, the binding result in assay [1] was “binds”; in assay [2] it was “binds”; in assay [3], “binds”; in assay [4], “no binding (tested: 5 ug/ml)”.

B3: anti-CDH19 antibody 4A2 (Ab ID 13592) (antibody, human IgG1, kappa, V domains shown)
VH: QVQLQESGPGLVKPSQTLSLTCTVSGGSISSSGYYWSWIRQHPGKGLEWIGYIYYTGSAYYNPSLKSRVTISVDTSKNQFSLKLSSVTAADTAVYYCARDGSSGWYFQYWGQGTLVTVSS
VL: EIVLTQSPGTLSLSPGERATLSCRASRNISSSYLAWYQQKPGQAPRLLIYGPSSRATGIPDRFSGSGSGTDFTLTISRLEPEDFTVYYCQQYGSSFTFGPGTKVDIKR
notes: Bin 4
For the molecule B3, the figures for the binding result in assay [2] and in assay [4] were “binds” and “no binding (tested: 5 ug/ml)”, respectively.

B4: hu anti-<huCDH19> 26D1.1 (Ab ID 13882) (antibody, human IgG1, lambda, V domains shown)
VH: QVQLVQSGAEVKKPGASVKVSCKASRYTFTSYYMSWVRQAPGQGLEWMGIIHPSGGDTTYAQKFQGRVTMTGDTSTSTVYMELSSLRSEDTAVYYCARGGIKLWLHFDYWGQGTLVTVSS
VL: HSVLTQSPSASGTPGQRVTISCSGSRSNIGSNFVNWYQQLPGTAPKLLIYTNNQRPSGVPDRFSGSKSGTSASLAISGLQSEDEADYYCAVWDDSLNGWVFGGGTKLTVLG
notes: huIgG1z / huLLC-C2; Bin 2
Regarding B4, the binding result in assay [1] is reported as “no binding (tested: 5 ug/ml)”; in assay [2] it was “binds”; in assay [3], “binds”; in assay [4], “no binding (tested: 5 ug/ml)”.

B5: hu anti-<huCDH19> 25F8.1 (1-469)(F90Y) VH::huIgG1z + 25F8.1 (1-235)(K45Q,S102A,D111E) VL::huLLC-C2 (Ab ID 14096) (antibody, V domains shown)
VH: B4 VH with R26G, M34I, S35H, H52N, D57S, T59R, G72R, K102Q
VL: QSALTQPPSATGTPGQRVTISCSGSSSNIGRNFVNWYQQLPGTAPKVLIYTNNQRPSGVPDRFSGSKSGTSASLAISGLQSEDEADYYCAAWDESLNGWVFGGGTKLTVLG
notes: Engineered variant of 25F8; the entries already carry the changes; Bin 2
B5: the binding result is “no binding (tested: 5 ug/ml)” in assay [1], “binds” in assay [2], “binds” in assay [3] and “no binding (tested: 5 ug/ml)” in assay [4].

B6: anti-CDH19 antibody 2G6 (Ab ID 13588) (antibody, human IgG1, lambda, V domains shown)
VH: QVQLVESGGGVVQPGRSLRLSCAASGFTFSSYGMHWVRQAPGKGLEWVAFIWYDGSNKYYADSVKDRFTISRDNSKNTLYLQMKSLRAEDTAVYYCARRAGIIGTIGYYYGMDVWGQGTTVTVSS
VL: SYELTQPPSVSVSPGQTASITCSGDRLGEKYTCWYQQRPGQSPLLVIYQDTKRPSGIPERFSGSNSGNTATLTISGTQAMDEADYYCQAWDSSTVVFGGGTKLTVLG
notes: Bin 4
Regarding B6, the binding result in assay [1] was “binds”; in assay [2] it was “binds”; in assay [3], “binds”; in assay [4], “no binding (tested: 5 ug/ml)”.

B7: hu anti-<huCDH19> 23A10.3 (1-474)(L92Q) VH::huIgG1z + 23A10.3 (1-231)(C42S) VL::huLLC-C2 (Ab ID 14077) (antibody, V domains shown)
VH: B6 VH with S31R, M34I, F50V, D66G, K84N, T91S, I103P, I106T
VL: B6 VL with T32V, C33S, R38K, L44I, T51N, R53W
notes: Engineered variant of 23A10; the entries already carry the changes; Bin 4
On to B7, for which the binding result was “binds” in assay [1], “binds” in assay [2], “binds” in assay [3] and “no binding (tested: 5 ug/ml)” in assay [4].
